Assay results reported in US20120190564A1, “IDENTIFICATION OF PROTEIN BINDING SITES” (priority 2000, published 2012).
“Also recorded” adds a separate entry of the source. Ends that are not written are not given here. code + = amino-terminal bromo-group; mmt = not defined here

Assays:
Type in all cases: binding
Antibody-2 = test: Pepscan ELISA on single or double hFSH peptide loops, Antibody-2; conditions: individual loop peptides coupled as single loops
Text: (§1) FIG. 17: Result of Pepscan ELISA with two different antibodies on single or double peptide loops coupled to Pepscan minicards, as described above. Coupled to square-A: Loop peptide-1; Coupled to square-B: first Loop peptide-1 followed by Loop peptide-2; Coupled to square-C: Loop peptide-2; Coupled to square-D: first Loop peptide-2 followed by Loop peptide-1. Loop peptide-1: +KSYNRVTVMGGFKVEZ-conh2 (SEQ ID NO: 63); Loop peptide-2: +LQENPFFSQPGAPILZ-conh2 (SEQ ID NO: 64). The y-axis are optical density values (OD) obtained using a ccd-camera system. Both loop-peptides are derived from human Follicle-Stimulating Hormone (hFSH).
(§2) Two peptides that constitute two separate parts of a discontinuous epitope were coupled to the surface of a minicard as described above in the legend of FIG. 12 (cf. FIG. 3A and FIG. 4 (example-4)). A cys(mmt) was coupled alone or in combination with a cys(trt) (in a 1:1 ratio) and/or val(mmt) (the cys and val in a 1:1, 1:3, 1:9 etc. ratio). In this way one peptide was coupled (squares A and C) or two peptides with increasing valines in between the cysteines were coupled (squares B and D) (cf. FIG. 4B (example-4), FIG. 17). These four configurations were incubated with two different antibodies.

Antibody-1 = test: Pepscan ELISA on single or double hFSH peptide loops, Antibody-1; conditions: individual loop peptides coupled as a single loop
Text: as §1, §2

lysozyme-biotin = lysozyme-biotin (Gallus gallus, UniProt P00698); test: Loop-loop Matrix-scan of CDR loop-peptide pairs with lysozyme-biotin; conditions: lysozyme-biotin 100 ug/ml, in triplo
Protocol: FIG. 16: Result of the loop-loop 15-mer Matrix-scan of loop-loop CDR-regions of antibodies with lysozyme-biotin (100 ug/ml, in triplo). Using 1 μg/ml lysozyme-biotin no binding is observed (not shown). Controls of only streptavidin-peroxidase in between the tests were negative (not shown). Peptides A, B, C, D, E and F: Peptide-A: +ARERDYRLDYZ (SEQ ID NO: 30) (HCDR3 of 1 fdl.pdb); Peptide-B: +ARGDGNYGYZ (SEQ ID NO: 31) (HCDR3 of 1mlb.pdb); Peptide-C: +LHGNYDFDGZ (SEQ ID NO: 32) (HCDR3 of 3hfl.pdb); Peptide-D: +ANWDGDYZ (SEQ ID NO: 33) (HCDR3 of 3hfm.pdb); Peptide-E: +ARRYGNSFDYZ (SEQ ID NO: 34) (HCDR3 of 1qfw.pdb); Peptide-F: +ARQGTAAQPYWYZ (SEQ ID NO: 35) (HCDR3 of 1qfw.pdb) (1fdl.pdb, 1mlb.pdb, 3hfl.pdb and 3hfm.pdb are antibodies that bind lysozyme; 1qfw.pdb are two antibodies that bind human choriogonadotrophin). All peptides have an amino terminal bromo-group (+) and a carboxyterminal lysine-mmt (Z).
Peptides 1 to 27: Peptide-1: +RASGNIHNYLAZ (SEQ ID NO: 36) (LCDR1 of 1fdl.pdb); Peptide-2: +RASQSISNNLHZ (SEQ ID NO: 37) (LCDR1 of 1mlb.pdb); Peptide-3: +SASSSVNYMYZ (SEQ ID NO: 38) (LCDR1 of 3hfl.pdb); Peptide-4: +RASQSIGNNLHZ (SEQ ID NO: 39) (LCDR1 of 3hfm.pdb); Peptide-5: +RASESVDSYGNSZ (SEQ ID NO: 40) (LCDR1 of 1qfw.pdb); Peptide-6: +ASESVDSYGNSFZ (SEQ ID NO: 41) (LCDR1 of 1qfw.pdb); […]: +SESVDSYGNSFMZ (SEQ ID NO: 42) (LCDR1 of 1qfw.pdb); Peptide-8: +ESVDSYGNSFMQZ (SEQ ID NO: 43) (LCDR1 of 1qfw.pdb); Peptide-9: +RASESVDSYGNSFZ (SEQ ID NO: 44) (LCDR1 of 1qfw.pdb); Peptide-10: +ASESVDSYGNSFMZ (SEQ ID NO: 45) (LCDR1 of 1qfw.pdb); Peptide-11: +SESVDSYGNSFMQZ (SEQ ID NO: 46) (LCDR1 of 1qfw.pdb); Peptide-12: +RASESVDSYGNSFMZ (SEQ ID NO: 47) (LCDR1 of 1qfw.pdb); Peptide-13: +ASESVDSYGNSFMQZ (SEQ ID NO: 48) (LCDR1 of 1qfw.pdb); Peptide-14: +RASESVDSYGNSFMQZ (SEQ ID NO: 49) (LCDR1 of 1qfw.pdb); Peptide-15: +KASETVDSFVSZ (SEQ ID NO: 50) (LCDR1 of 1qfw.pdb); Peptide-16: +LLVYYTTTLADGZ (SEQ ID NO: 51) (LCDR2 of 1fdl.pdb); Peptide-17: +LLIKYVSQSSSGZ (SEQ ID NO: 52) (LCDR2 of 1mlb.pdb); Peptide-18: +RWIYDTSKLASGZ (SEQ ID NO: 53) (LCDR2 of 3hfl.pdb); Peptide-19: +LLIKYASQSISGZ (SEQ ID NO: 54) (LCDR2 of 3hfm.pdb); Peptide-20: +LLIYRASNLESGZ (SEQ ID NO: 55) (LCDR2 of 1qfw.pdb); Peptide-21: LLIFGASNRESGZ (SEQ ID NO: 56) (LCDR2 of 1qfw.pdb); Peptide-22: +QHFWSTPRTZ (SEQ ID NO: 57) (LCDR3 of 1fdl.pdb); Peptide-23: +QQSNSWPRTZ (SEQ ID NO: 58) (LCDR3 of 1mlb.pdb); Peptide-24: +QQWGRNPTZ (SEQ ID NO: 59) (LCDR3 of 3hfl.pdb); Peptide-25: +QQSNSWPYTZ (SEQ ID NO: 60) (LCDR3 of 3hfm.pdb); Peptide-26: +QQSDEYPYMYTZ (SEQ ID NO: 61) (LCDR3 of 1qfw.pdb); Peptide-27: +GQTYNHPYTZ (SEQ ID NO: 62) (LCDR3 of 1qfw.pdb) (1 fdl.pdb, 1mlb.pdb, 3hfl.pdb and 3hfm.pdb are antibodies that bind lysozyme; 1 qfw.pdb are two antibodies that bind human choriogonadotrophin). All peptides have an amioterminal bromo-group (+) and a carboxyterminal lysine-mmt (Z).
From six different antibodies, the HCDR3-region (complementary determining region three of the antibody heavy chain) was synthesized as synthetic loop-peptides. As an example, four different anti-lysozyme antibodies and two different anti-choriogonadotrophin antibodies were selected: 1fdl.pdb (D1.3), 1mlb.pdb (D44.1), 3hfl.pdb (HyHel-5), 3hfm.pdb (HyHel-10) all anti-lysozyme, and 1qfw.pdb, two anti-human choriogonadotrophin, one anti-alpha and one anti-beta. The synthetic loop peptides were coupled to the minicards as described above. The three-dimensional coordinates (pdb-files) were extracted from the Protein Data Bank (PDB) at www.rcsb.org (RCSB, Research Collaboratory for Structural Bioinformatics) (Berman et al., 2000, The Protein Data Bank. Nucleic Acids Research, 28 pp. 235-242; Bernstein et al. 1977, The protein data bank: A computer-based archival file for macromolecular structures. J. Mol. Biol. 112:535-542). […]

monoclonal antibody 210 = test: Standard linear Pepscan on all overlapping 12-mers of hTNF with mAb 210; conditions: all overlapping linear 12-mers covering hTNF
Protocol: FIG. 10: Standard linear Pepscan on all overlapping synthetic 12-mers covering the linear sequence of hTNF with monoclonal antibody 210 (R&D Systems, MAB210, clone 1825.12, through ITK Diagnostics Uithoorn, The Netherlands). A small peak with the sequence IKSPCQRETPEG (SEQ ID NO: 2) was identified. The y-axis are optical density values (OD) obtained using a ccd-camera system. Rampo, rabbit-anti-mouse peroxidase (DAKO).
The monoclonal antibody mAb-210 raised against hTNF was tested on linear and loop peptides (mAb-210 was bought from R&D Systems, MAB210, clone 1825.12, through ITK Diagnostics Uithoorn, The Netherlands). Firstly, it was tested in Pepscan on all overlapping linear 12-mers covering hTNF. […] Secondly, it was tested in Pepscan matrix-scan on double 15-mer loop-loop peptides (as described in FIGS. 3 and 4 and explained through FIGS. 11-12). Two loop-regions were labeled: peptide sequence GQGCPSTHVLLT (SEQ ID NO: 65) (squares 65 to 67) and SAIKSPCQRE (SEQ ID NO: 28) (squares 92 to 96) (FIGS. 13, 14). In addition in various squares loop peptide spots were identified corresponding to sequence GQGCPSTHVLLT (SEQ ID NO: 65) (spots 65-67); SAIKSPCQRE (SEQ ID NO: 28) (spots 92-96) and KGDRLSAEINR (SEQ ID NO: 29) (spots 126-129) (FIG. 14). […]

lysozyme-biotin, sequence (P00698 19-147): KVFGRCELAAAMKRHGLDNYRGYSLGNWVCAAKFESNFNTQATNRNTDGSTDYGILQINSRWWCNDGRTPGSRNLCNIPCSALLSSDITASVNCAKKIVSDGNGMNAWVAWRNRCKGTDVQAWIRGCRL

Row | Substance | binding activity with lysozyme-biotin (lysozyme-biotin) | also measured
1 | +KSYNRVTVMGGFKVEZ-conh2 ({code +}-KSYNRVTVMGGFKVEX-NH2; not fully specified; printed as +KSYNRVTVMGGFKVEZ-conh2) [loop peptide-1, loop-peptide derived from human Follicle-Stimulating Hormone (hFSH)] | – | recognition by Antibody-2 (Antibody-2): recognized
2 | +LQENPFFSQPGAPILZ-conh2 ({code +}-LQENPFFSQPGAPILX-NH2; not fully specified; printed as +LQENPFFSQPGAPILZ-conh2) [loop peptide-2, loop-peptide derived from human Follicle-Stimulating Hormone (hFSH)] | – | recognition by Antibody-1 (Antibody-1): recognized
3 | +LHGNYDFDGZ (SEQ ID NO: 32)+SESVDSYGNSFMQZ (SEQ ID NO: 46): loop-loop peptide pair: loop of HCDR3 of 3hfl.pdb with loop of LCDR1 of 1qfw.pdb (chain 1 {code +}-LHGNYDFDGK(mmt); chain 2 {code +}-SESVDSYGNSFMQK(mmt); not fully specified; reading uncertain) | highest binding activity | –
4 | +LHGNYDFDGZ (SEQ ID NO: 32)+ASESVDSYGNSFMZ (SEQ ID NO: 45): loop-loop peptide pair: loop of HCDR3 of 3hfl.pdb and loop of LCDR1 1qfw.pdb (chain 1 {code +}-LHGNYDFDGK(mmt); chain 2 {code +}-ASESVDSYGNSFMK(mmt); not fully specified; reading uncertain) | highest binding activity | –
5 | +LHGNYDFDGZ (SEQ ID NO: 32)+RASESVDSYGNSFMQZ (SEQ ID NO: 49): loop-loop peptide pair: loop of HCDR3 of 3hfl.pdb and loop of LCDR1 1qfw.pdb (chain 1 {code +}-LHGNYDFDGK(mmt); chain 2 {code +}-RASESVDSYGNSFMQK(mmt); not fully specified; reading uncertain) | highest binding activity | –
6 | +LHGNYDFDGZ (SEQ ID NO: 32)+ASESVDSYGNSFZ (SEQ ID NO: 41): loop-loop peptide pair: loop of HCDR3 of 3hfl.pdb and loop of LCDR1 1qfw.pdb (chain 1 {code +}-LHGNYDFDGK(mmt); chain 2 {code +}-ASESVDSYGNSFK(mmt); not fully specified; reading uncertain) | highest binding activity | –
7 | +LHGNYDFDGZ (SEQ ID NO: 32)+RASESVDSYGNSFZ (SEQ ID NO: 44): loop-loop peptide pair: loop of HCDR3 of 3hfl.pdb and loop of LCDR1 1qfw.pdb (chain 1 {code +}-LHGNYDFDGK(mmt); chain 2 {code +}-RASESVDSYGNSFK(mmt); not fully specified; reading uncertain) | highest binding activity | –
8 | +LHGNYDFDGZ (SEQ ID NO: 32)+LLVYYTTTLADGZ (SEQ ID NO: 51): loop-loop peptide pair: loop of HCDR3 of 3hfl.pdb and loop of LCDR2 1fdl.pdb (chain 1 {code +}-LHGNYDFDGK(mmt); chain 2 {code +}-LLVYYTTTLADGK(mmt); not fully specified; reading uncertain) | highest binding activity | –
9 | IKSPCQRETPEG | – | Pepscan binding of monoclonal antibody 210 (optical density) (monoclonal antibody 210): minor peak; also recorded: small peak
